Assay results: article PMC10786891, “Massively parallel profiling of RNA-targeting CRISPR-Cas13d”
Residue numbers refer to the chain shown, from its start. In names and notes the source's numbering stands.

T1: EsCas13d, nuclease-dead (Eubacterium siraeum, UniProt B0MS50, R295A;H300A;R849A;H854A)
T1 sequence: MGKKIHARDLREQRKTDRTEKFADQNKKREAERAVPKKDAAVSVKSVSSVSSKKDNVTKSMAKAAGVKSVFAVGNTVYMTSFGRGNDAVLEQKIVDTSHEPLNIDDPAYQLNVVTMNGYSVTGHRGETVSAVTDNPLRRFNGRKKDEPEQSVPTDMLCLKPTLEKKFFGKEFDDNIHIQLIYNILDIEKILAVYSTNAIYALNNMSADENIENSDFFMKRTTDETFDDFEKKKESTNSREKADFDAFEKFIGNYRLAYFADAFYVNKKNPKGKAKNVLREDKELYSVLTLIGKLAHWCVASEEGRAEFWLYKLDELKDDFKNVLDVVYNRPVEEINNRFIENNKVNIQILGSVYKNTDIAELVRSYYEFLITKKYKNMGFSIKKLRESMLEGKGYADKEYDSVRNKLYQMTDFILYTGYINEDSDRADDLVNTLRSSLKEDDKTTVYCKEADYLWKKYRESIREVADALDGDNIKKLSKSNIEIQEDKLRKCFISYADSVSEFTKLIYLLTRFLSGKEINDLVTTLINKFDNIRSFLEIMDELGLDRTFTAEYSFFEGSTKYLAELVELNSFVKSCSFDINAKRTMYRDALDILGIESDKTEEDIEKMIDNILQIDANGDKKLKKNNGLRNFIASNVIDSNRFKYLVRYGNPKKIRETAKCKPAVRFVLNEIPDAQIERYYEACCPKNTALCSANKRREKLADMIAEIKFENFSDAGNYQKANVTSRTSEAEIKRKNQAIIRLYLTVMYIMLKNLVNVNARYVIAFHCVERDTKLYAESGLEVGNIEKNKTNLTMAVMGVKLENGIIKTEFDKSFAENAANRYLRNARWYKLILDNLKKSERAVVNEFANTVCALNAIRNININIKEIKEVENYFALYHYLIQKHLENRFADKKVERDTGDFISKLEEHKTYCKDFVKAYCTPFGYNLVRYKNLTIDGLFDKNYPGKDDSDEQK

B1: target 2 MT 5'PFS GCC 3'PFS CCG (mixed)
RNA 1: CACCCGUGCAAAAUUGCAGGGGUCUAAAACCUUCUCCAAAUUGUUUCAUCCU
RNA 2: GGGAAUGGAUCCACAUCUACGAAUUCGCCAGGAUGAAACAAUUUGGAGAAGCCGAGAUCGGAAGAGCACACGU
B2: target 2 MT 5'PFS GUG 3'PFS UGU (mixed)
RNA 1: B1 RNA 1
RNA 2: B1 RNA 2 with C28U, C29G, C52U, C53G, G54U
B3: target 2 MT 5'PFS GCG 3'PFS AGG (mixed)
RNA 1: B1 RNA 1
RNA 2: B1 RNA 2 with C29G, C52A, C53G
B4: target 2 MT 5'PFS ACG 3'PFS CAU (mixed)
RNA 1: B1 RNA 1
RNA 2: B1 RNA 2 with G27A, C29G, C53A, G54U
B5: target 2 MT 5'PFS GCC 3'PFS CCA (mixed)
RNA 1: B1 RNA 1
RNA 2: B1 RNA 2 with G54A
B6: target 2 MT 5'PFS CGC 3'PFS ACC (mixed)
RNA 1: B1 RNA 1
RNA 2: B1 RNA 2 with G27C, C28G, C52A, G54C
B7: target 2 MT 5'PFS GCG 3'PFS AGA (mixed)
RNA 1: B1 RNA 1
RNA 2: B1 RNA 2 with C29G, C52A, C53G, G54A
B8: target 2 MT 5'PFS CUC 3'PFS CUA (mixed)
RNA 1: B1 RNA 1
RNA 2: B1 RNA 2 with G27C, C28U, C53U, G54A
B9: target 2 MT 5'PFS GCG 3'PFS AGC (mixed)
RNA 1: B1 RNA 1
RNA 2: B1 RNA 2 with C29G, C52A, C53G, G54C
B10: target 2 MT 5'PFS ACG 3'PFS CAG (mixed)
RNA 1: B1 RNA 1
RNA 2: B1 RNA 2 with G27A, C29G, C53A
B11: target 2 MT 5'PFS UCG 3'PFS ACU (mixed)
RNA 1: B1 RNA 1
RNA 2: B1 RNA 2 with G27U, C29G, C52A, G54U
B12: target 2 MT 5'PFS CUC 3'PFS CUG (mixed)
RNA 1: B1 RNA 1
RNA 2: B1 RNA 2 with G27C, C28U, C53U
B13: target 2 MT 5'PFS CUC 3'PFS CUC (mixed)
RNA 1: B1 RNA 1
RNA 2: B1 RNA 2 with G27C, C28U, C53U, G54C
B14: target 2 MT 5'PFS CUC 3'PFS CUU (mixed)
RNA 1: B1 RNA 1
RNA 2: B1 RNA 2 with G27C, C28U, C53U, G54U
B15: target 2 MT 5'PFS CGC 3'PFS ACU (mixed)
RNA 1: B1 RNA 1
RNA 2: B1 RNA 2 with G27C, C28G, C52A, G54U
B16: target 2 MT 5'PFS GCA 3'PFS AAU (mixed)
RNA 1: B1 RNA 1
RNA 2: B1 RNA 2 with C29A, C52A, C53A, G54U
B17: target 2 MT 5'PFS UCG 3'PFS ACG (mixed)
RNA 1: B1 RNA 1
RNA 2: B1 RNA 2 with G27U, C29G, C52A
B18: target 2 MT 5'PFS CUG 3'PFS ACC (mixed)
RNA 1: B1 RNA 1
RNA 2: B1 RNA 2 with G27C, C28U, C29G, C52A, G54C
B19: target 2 MT 5'PFS GCA 3'PFS AAA (mixed)
RNA 1: B1 RNA 1
RNA 2: B1 RNA 2 with C29A, C52A, C53A, G54A
B20: target 2 MT 5'PFS CUG 3'PFS ACU (mixed)
RNA 1: B1 RNA 1
RNA 2: B1 RNA 2 with G27C, C28U, C29G, C52A, G54U
B21: target 2 MT 5'PFS ACG 3'PFS CAC (mixed)
RNA 1: B1 RNA 1
RNA 2: B1 RNA 2 with G27A, C29G, C53A, G54C
B22: target 2 MT 5'PFS CGC 3'PFS ACA (mixed)
RNA 1: B1 RNA 1
RNA 2: B1 RNA 2 with G27C, C28G, C52A, G54A
B23: target 2 MT 5'PFS CUG 3'PFS ACA (mixed)
RNA 1: B1 RNA 1
RNA 2: B1 RNA 2 with G27C, C28U, C29G, C52A, G54A
B24: target 2 MT 5'PFS CGC 3'PFS ACG (mixed)
RNA 1: B1 RNA 1
RNA 2: B1 RNA 2 with G27C, C28G, C52A
B25: target 2 MT 5'PFS AAC 3'PFS AGA (mixed)
RNA 1: B1 RNA 1
RNA 2: B1 RNA 2 with G27A, C28A, C52A, C53G, G54A
B26: target 2 MT 5'PFS CUG 3'PFS ACG (mixed)
RNA 1: B1 RNA 1
RNA 2: B1 RNA 2 with G27C, C28U, C29G, C52A
B27: target 2 MT 5'PFS GCA 3'PFS AAG (mixed)
RNA 1: B1 RNA 1
RNA 2: B1 RNA 2 with C29A, C52A, C53A
B28: target 2 MT 5'PFS GCA 3'PFS AAC (mixed)
RNA 1: B1 RNA 1
RNA 2: B1 RNA 2 with C29A, C52A, C53A, G54C
B29: target 2 MT 5'PFS CAG 3'PFS AAC (mixed)
RNA 1: B1 RNA 1
RNA 2: B1 RNA 2 with G27C, C28A, C29G, C52A, C53A, G54C
B30: target 2 MT 5'PFS GCG 3'PFS AGU (mixed)
RNA 1: B1 RNA 1
RNA 2: B1 RNA 2 with C29G, C52A, C53G, G54U
B31: target 1 insG 3' of 22,insG 3' of 21 (mixed)
RNA 1: CACCCGUGCAAAAAUGCAGGGGUCUAAAACUGAGCGGAUAACCUCUCUAUGG
RNA 2: GGGAAUGGAUCCACAUCUACGAAUUCGUACGCGAUAGAGAGGUUAUCCGCUCACCGAGAUCGGAAGAGCACACGU
B32: target 1 A9U,G13U (mixed)
RNA 1: B31 RNA 1
RNA 2: GGGAAUGGAUCCACAUCUACGAAUUCGUACCAUAGAGAUGUUUUCCGCUCACCGAGAUCGGAAGAGCACACGU
B33: target 1 G13C,A14C (mixed)
RNA 1: B31 RNA 1
RNA 2: B32 RNA 2 with A38C, U39C, U43A

What follows are binders tested against T1, EsCas13d, nuclease-dead (assay: crRNA (strand 1, pre-loaded); Mg2+; 40 mM Tris-HCl pH 7.5, 150 mM NaCl, 6 mM MgCl2, 1 mM DTT, 0.1% Tween-20, 0.2 mg/ml BSA; 25 C; 10 min per concentration, then washed). Settings: tags: His6-TwinStrep-SUMO cleaved; N-terminal SNAP kept (SNAP-Surface 488); label: 3' end held by stalled T7 RNA polymerase.
Work on B1 yielded a Kd of 18 ± 2 nM.
In the case of B2, the Kd is reported as 27 ± 2.4 nM.
B3 gave a Kd of 16.2 ± 2.8 nM.
B4 gave a Kd of 5.5 ± 0.6 nM.
With B5 the Kd was 20 ± 4 nM.
Work on B6 yielded a Kd of 18 ± 4 nM.
Work on B7 yielded a Kd of 7.6 ± 1 nM.
With B8 the Kd was 2.02 ± 0.29 nM.
With B9 the Kd was 9.7 ± 1.6 nM.
Binder B10 has a Kd of 7.7 ± 1.4 nM.
For B11, the Kd was 20 ± 4 nM.
Work on B12 yielded a Kd of 4.4 ± 1.5 nM.
B13 was tested, and the Kd was 3.1 ± 0.6 nM.
Binder B14 has a Kd of 2.47 ± 0.18 nM.
B15 was tested, and the Kd was 6 ± 0.8 nM.
B16 showed a Kd of 10 ± 1.9 nM.
Work on B17 yielded a Kd of 45 ± 9 nM.
B18 showed a Kd of 5.6 ± 1.2 nM.
In the case of B19, the Kd is reported as 6.5 ± 2 nM.
B20 was tested, and the Kd was 4.5 ± 0.8 nM.
For B21, the Kd was 5.7 ± 1.2 nM.
With B22 the Kd was 11 ± 5 nM.
B23 was tested, and the Kd was 3.9 ± 0.5 nM.
For B24, the Kd was 5.2 ± 0.7 nM.
For B25, the Kd was 3.3 ± 0.8 nM.
Work on B26 yielded a Kd of 2.89 ± 0.25 nM.
B27 gave a Kd of 7.8 ± 1.2 nM.
With B28 the Kd was 11.9 ± 3.3 nM.
B29 was tested, and the Kd was 6.1 ± 1.4 nM.
Binder B30 has a Kd of 11.6 ± 2.1 nM.
B31 was tested, and the Kd was 68 ± 24 nM.
Work on B32 yielded a Kd of 53 ± 8 nM.
With B33 the Kd was 50 ± 9 nM.
